Reference: doi:10.1101/466904v1
Numbering of substitutions follows the chain as printed. In names and notes the source's numbering stands.

B1: Axe2 (Geobacillus stearothermophilus) (protein)
chain: MKIGSGEKLLFIGDSITDCGRARPEGEGSFGALGTGYVAYVVGLLQAVYPELGIRVVNKGISGNTVRDLKARWEEDVIAQKPDWVSIMIGINDVWRQYDLPFMKEKHVYLDEYEATLRSLVLETKPLVKGIILMTPFYIEGNEQDPMRRTMDQYGRVVKQIAEETNSLFVDTQAAFNEVLKTLYPAALAWDRVHPSVAGHMILARAFLREIGFEWVRSR
B2: Axe2 (Geobacillus stearothermophilus; W190P/Y184F) (protein)
chain: B1 chain with Y184F, W190P
B3: Axe2 (Geobacillus stearothermophilus; W190I) (protein)
chain: B1 chain with W190I
B4: Axe2 (Geobacillus stearothermophilus; R205A/W215A/Y184F) (protein)
chain: B1 chain with Y184F, R205A, W215A
B5: Axe2 (Geobacillus stearothermophilus; R55E) (protein)
chain: B1 chain with R55E
B6: Axe2 (Geobacillus stearothermophilus; Y184N) (protein)
chain: B1 chain with Y184N
B7: Axe2 (Geobacillus stearothermophilus; R55A) (protein)
chain: B1 chain with R55A
B8: Axe2 (Geobacillus stearothermophilus; Y184F) (protein)
chain: B1 chain with Y184F

Substrate: CC(=O)Oc1ccc2ccccc2c1
Assay: esterase activity assay
Format: biochemical, Geobacillus stearothermophilus
Conditions: 2-naphthyl acetate 1-20 mM in isopropanol, citrate phosphate buffer pH 7

| Protein | Km [µM] | kcat |
| --- | --- | --- |
| B1 | 300 | 720 s⁻¹ |
| B2 | 3000 | 44 s⁻¹ |
| B3 | 700 | 290 s⁻¹ |
| B4 | 6700 | 42 s⁻¹ |
| B5 | 500 | 1000 s⁻¹ |
| B6 | 1300 | 8.0x10^0 sec-1 |
| B7 | 600 | 1000 s⁻¹ |
| B8 | 4600 | 36 s⁻¹ |
